The values below come from the supplement of paper PMC7125110.

± gives the standard error. For part of these data: Fewer inactive variants are shown than the library holds.

Usually kcat stands for the maximal rate divided by the concentration of active sites. Broadly, the KM is the concentration of substrate that gives half-maximal velocity.

B1: glmS ribozyme (parent)
chain: AUAAAAGCGCCAGAACUACAGAAAUGUAGUUGACGAGGAGGAGGUUUAUCGAAUUUUCGGCGGAUGCCUCCAAA

What all share (details): with glucosamine-6-phosphate
Variants of B1 are the subject of data set [1]. Nature of the data set: kcat; higher = faster cleavage; RNA array. The method, boiled down:
(§1)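 On sequenced MiSeq chips, barcoded ribozyme variants were made in situ by E. coli RNA polymerase and followed at 37 °C through a hybridised Cy3 probe. Glucosamine-6-phosphate was flowed in at 40 μM to 10 mM in HEPES/KCl/Mg(OAc)2 buffer. Exponential fits to normalised per-tile medians gave kobs, and weighted Michaelis–Menten fits gave kcat and KM.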

The variants in data set [2] derive from B1. Nature of the data set: KM; higher = weaker cofactor use; RNA array. Summed up:
as §1

The variants in data set [3] derive from B1. Nature of the data set: self-cleavage kobs at 40 uM GlcN6P; higher = faster cleavage; RNA array. Summed up:
as §1

In data set [4] the parent is B1. Put plainly: self-cleavage kobs at 160 uM GlcN6P; higher = faster cleavage; RNA array. Summed up: as §1
Data set [5] covers variants of B1. Nature of the data set: self-cleavage kobs at 640 uM GlcN6P; higher = faster cleavage; RNA array. Summed up: as §1
In data set [6] the parent is B1. Nature of the data set: self-cleavage kobs at 2500 uM GlcN6P; higher = faster cleavage; RNA array. Summed up: as §1
Variants of B1 are the subject of data set [7]. Nature of the data set: self-cleavage kobs at 10000 uM GlcN6P; higher = faster cleavage; RNA array. The method, boiled down:
as §1

With U31A U55C, the kcat in the data set with glucosamine-6-phosphate [1] is 0.0168 ± 0.0039 s⁻¹. For the same variant, the KM with glucosamine-6-phosphate [2] came to 3130 ± 990 µM. In addition, in the data set with glucosamine-6-phosphate [3], the “self-cleavage kobs at 40 uM GlcN6P” value was determined as 0.000283 ± 4.3e-05 s⁻¹. In addition, the “self-cleavage kobs at 160 uM GlcN6P” value with glucosamine-6-phosphate [4] is 0.000647 ± 0.00012 s⁻¹. Also, the “self-cleavage kobs at 640 uM GlcN6P” value with glucosamine-6-phosphate [5] worked out at 0.00293 ± 0.00082 s⁻¹. Also, in the data set with glucosamine-6-phosphate [6], the “self-cleavage kobs at 2500 uM GlcN6P” value was 0.00826 ± 0.0023 s⁻¹. Besides, in the data set with glucosamine-6-phosphate [7], the “self-cleavage kobs at 10000 uM GlcN6P” value was 0.0127 ± 0.0018 s⁻¹.
As to A12C G41C, in the data set with glucosamine-6-phosphate [1], the kcat turned out to be 4.9e-05 ± 9.3e-06 s⁻¹. The “self-cleavage kobs at 2500 uM GlcN6P” value with glucosamine-6-phosphate [6] stood at 7.35e-05 ± 3.2e-05 s⁻¹. Further, in the data set with glucosamine-6-phosphate [7], the “self-cleavage kobs at 10000 uM GlcN6P” value was found to be 4.45e-05 ± 1.1e-05 s⁻¹.
In the case of G60C C68U, the kcat with glucosamine-6-phosphate [1] is less than 1e-05 s⁻¹. Also, the “self-cleavage kobs at 160 uM GlcN6P” value with glucosamine-6-phosphate [4] is less than 1e-05 s⁻¹.
As for C16U U69G, the kcat with glucosamine-6-phosphate [1] came out at 6.57e-05 ± 1.1e-05 s⁻¹. Also, the “self-cleavage kobs at 160 uM GlcN6P” value with glucosamine-6-phosphate [4] was determined as 5.84e-05 ± 1.4e-05 s⁻¹. Also, the “self-cleavage kobs at 640 uM GlcN6P” value with glucosamine-6-phosphate [5] came to 9.02e-05 ± 2.1e-05 s⁻¹. Also, the “self-cleavage kobs at 2500 uM GlcN6P” value in the data set with glucosamine-6-phosphate [6] was found to be 8.96e-05 ± 1.1e-05 s⁻¹. The “self-cleavage kobs at 10000 uM GlcN6P” value with glucosamine-6-phosphate [7] came to 5.34e-05 ± 6.6e-06 s⁻¹.
As to A6U U55A, the kcat with glucosamine-6-phosphate [1] is 0.000365 ± 1.1e-05 s⁻¹. For the same variant, in the data set with glucosamine-6-phosphate [2], the KM was found to be 2630 ± 160 µM. Moreover, the “self-cleavage kobs at 640 uM GlcN6P” value with glucosamine-6-phosphate [5] worked out at 7.22e-05 ± 1.3e-05 s⁻¹. Moreover, the “self-cleavage kobs at 2500 uM GlcN6P” value with glucosamine-6-phosphate [6] came out at 0.000173 ± 3.5e-05 s⁻¹. Also, in the data set with glucosamine-6-phosphate [7], the “self-cleavage kobs at 10000 uM GlcN6P” value turned out to be 0.000291 ± 3.4e-05 s⁻¹.
Consider G38A C50G G63U C71A, for which the kcat with glucosamine-6-phosphate [1] turned out to be 4.03e-05 ± 1.2e-05 s⁻¹. Also, the “self-cleavage kobs at 160 uM GlcN6P” value with glucosamine-6-phosphate [4] was 7.25e-05 ± 2.2e-05 s⁻¹. Besides, the “self-cleavage kobs at 640 uM GlcN6P” value with glucosamine-6-phosphate [5] was 4.7e-05 ± 2.1e-05 s⁻¹. In the data set with glucosamine-6-phosphate [6], the “self-cleavage kobs at 2500 uM GlcN6P” value is 3.94e-05 ± 1.3e-05 s⁻¹.
Take A36U G66A: in the data set with glucosamine-6-phosphate [1], the kcat is less than 1e-05 s⁻¹. In the data set with glucosamine-6-phosphate [4], the “self-cleavage kobs at 160 uM GlcN6P” value was less than 1e-05 s⁻¹.
On to U49G, for which the kcat with glucosamine-6-phosphate [1] is 0.00147 ± 0.00022 s⁻¹. In addition, the KM with glucosamine-6-phosphate [2] stood at 2840 ± 550 µM. The “self-cleavage kobs at 40 uM GlcN6P” value in the data set with glucosamine-6-phosphate [3] came to 2.57e-05 ± 1.3e-06 s⁻¹. For the same variant, the “self-cleavage kobs at 160 uM GlcN6P” value in the data set with glucosamine-6-phosphate [4] worked out at 7.59e-05 ± 2.5e-06 s⁻¹. Further, the “self-cleavage kobs at 640 uM GlcN6P” value with glucosamine-6-phosphate [5] turned out to be 0.000258 ± 7.3e-06 s⁻¹. For the same variant, the “self-cleavage kobs at 2500 uM GlcN6P” value with glucosamine-6-phosphate [6] came out at 0.000807 ± 4.3e-05 s⁻¹. Also, the “self-cleavage kobs at 10000 uM GlcN6P” value with glucosamine-6-phosphate [7] came out at 0.00113 ± 4.5e-05 s⁻¹.
A15G U31G: the kcat with glucosamine-6-phosphate [1] is 0.00736 ± 0.0015 s⁻¹. For the same variant, the KM with glucosamine-6-phosphate [2] is 4370 ± 1200 µM. Also, the “self-cleavage kobs at 40 uM GlcN6P” value in the data set with glucosamine-6-phosphate [3] was found to be 7.87e-05 ± 9.4e-06 s⁻¹. For the same variant, the “self-cleavage kobs at 160 uM GlcN6P” value with glucosamine-6-phosphate [4] worked out at 0.000202 ± 3.2e-05 s⁻¹. Moreover, the “self-cleavage kobs at 640 uM GlcN6P” value in the data set with glucosamine-6-phosphate [5] came to 0.0011 ± 0.00015 s⁻¹. Besides, the “self-cleavage kobs at 2500 uM GlcN6P” value with glucosamine-6-phosphate [6] was found to be 0.00262 ± 0.00033 s⁻¹. Moreover, the “self-cleavage kobs at 10000 uM GlcN6P” value in the data set with glucosamine-6-phosphate [7] came out at 0.00513 ± 0.00051 s⁻¹.
On to U57G C67U, for which the kcat with glucosamine-6-phosphate [1] is 3.05e-05 ± 1e-05 s⁻¹. The “self-cleavage kobs at 2500 uM GlcN6P” value with glucosamine-6-phosphate [6] was 4.91e-05 ± 1.5e-05 s⁻¹. Moreover, the “self-cleavage kobs at 10000 uM GlcN6P” value in the data set with glucosamine-6-phosphate [7] turned out to be 2.19e-05 ± 1e-05 s⁻¹.
Regarding G41U A52U, the turnover number (kcat) in the data set with glucosamine-6-phosphate [1] came out at 0.000103 ± 1e-05 s⁻¹. Moreover, the KM with glucosamine-6-phosphate [2] turned out to be 1340 ± 510 µM. The “self-cleavage kobs at 2500 uM GlcN6P” value in the data set with glucosamine-6-phosphate [6] was determined as 7.47e-05 ± 1.3e-05 s⁻¹. Moreover, the “self-cleavage kobs at 10000 uM GlcN6P” value in the data set with glucosamine-6-phosphate [7] is 8.78e-05 ± 1.2e-05 s⁻¹.
In the case of U30C C50U, the kcat with glucosamine-6-phosphate [1] is less than 1e-05 s⁻¹.
As for A39U G62A, in the data set with glucosamine-6-phosphate [1], the kcat was less than 1e-05 s⁻¹. The “self-cleavage kobs at 40 uM GlcN6P” value with glucosamine-6-phosphate [3] was less than 1e-05 s⁻¹. For the same variant, the “self-cleavage kobs at 160 uM GlcN6P” value in the data set with glucosamine-6-phosphate [4] was less than 1e-05 s⁻¹. For the same variant, in the data set with glucosamine-6-phosphate [5], the “self-cleavage kobs at 640 uM GlcN6P” value is less than 1e-05 s⁻¹.
Turning to U30A C68U, in the data set with glucosamine-6-phosphate [1], the kcat is 0.000818 ± 0.00016 s⁻¹. Besides, the KM in the data set with glucosamine-6-phosphate [2] came out at 1730 ± 610 µM. Besides, in the data set with glucosamine-6-phosphate [3], the “self-cleavage kobs at 40 uM GlcN6P” value is 3.27e-05 ± 1.2e-05 s⁻¹. Besides, the “self-cleavage kobs at 160 uM GlcN6P” value with glucosamine-6-phosphate [4] was found to be 9.37e-05 ± 2e-05 s⁻¹. Also, the “self-cleavage kobs at 640 uM GlcN6P” value with glucosamine-6-phosphate [5] was found to be 0.000204 ± 2.7e-05 s⁻¹. Besides, in the data set with glucosamine-6-phosphate [6], the “self-cleavage kobs at 2500 uM GlcN6P” value turned out to be 0.000417 ± 6.6e-05 s⁻¹. The “self-cleavage kobs at 10000 uM GlcN6P” value with glucosamine-6-phosphate [7] was 0.000776 ± 9.4e-05 s⁻¹.
For the variant G41C C71A, in the data set with glucosamine-6-phosphate [1], the turnover number (kcat) stood at 0.000115 ± 2e-05 s⁻¹. Besides, in the data set with glucosamine-6-phosphate [5], the “self-cleavage kobs at 640 uM GlcN6P” value is 5.78e-05 ± 1.1e-05 s⁻¹. Further, the “self-cleavage kobs at 2500 uM GlcN6P” value with glucosamine-6-phosphate [6] was determined as 0.000181 ± 2.7e-05 s⁻¹. The “self-cleavage kobs at 10000 uM GlcN6P” value with glucosamine-6-phosphate [7] is 0.000103 ± 8.1e-06 s⁻¹.
On to G13A C68U, for which, in the data set with glucosamine-6-phosphate [1], the kcat came to 6.42e-05 ± 2.2e-06 s⁻¹. Besides, the Michaelis-Menten constant (KM) with glucosamine-6-phosphate [2] came out at 234 ± 85 µM. The “self-cleavage kobs at 640 uM GlcN6P” value with glucosamine-6-phosphate [5] worked out at 5.07e-05 ± 1.2e-05 s⁻¹. The “self-cleavage kobs at 2500 uM GlcN6P” value in the data set with glucosamine-6-phosphate [6] turned out to be 5.81e-05 ± 9e-06 s⁻¹. Also, the “self-cleavage kobs at 10000 uM GlcN6P” value in the data set with glucosamine-6-phosphate [7] was 6.26e-05 ± 5.5e-06 s⁻¹.
Consider A14C C71G, for which the kcat in the data set with glucosamine-6-phosphate [1] turned out to be 0.000465 ± 0.00016 s⁻¹. In the data set with glucosamine-6-phosphate [4], the “self-cleavage kobs at 160 uM GlcN6P” value stood at 3.11e-05 ± 1e-05 s⁻¹. Further, in the data set with glucosamine-6-phosphate [5], the “self-cleavage kobs at 640 uM GlcN6P” value was determined as 0.000228 ± 7.6e-05 s⁻¹. Also, the “self-cleavage kobs at 2500 uM GlcN6P” value with glucosamine-6-phosphate [6] was 0.00017 ± 2.9e-05 s⁻¹. In the data set with glucosamine-6-phosphate [7], the “self-cleavage kobs at 10000 uM GlcN6P” value turned out to be 0.00038 ± 4.5e-05 s⁻¹.
